Molecular target: p53CD (core domain) (human) (UniProt P04637)
Assay: ELISA
Settings: EMSA: 5 mM Tris-HCl pH 8, 1 mM MgCl2, 0.01% Triton X-100, 50 mM KCl, on ice or 25 C, 30 min, pBSK/SmaI competitor 5-50 ng; ELISA: 1x PBS, 2 mM MgCl2 …

Chain of p53CD (core domain) (human) (P04637 94-312): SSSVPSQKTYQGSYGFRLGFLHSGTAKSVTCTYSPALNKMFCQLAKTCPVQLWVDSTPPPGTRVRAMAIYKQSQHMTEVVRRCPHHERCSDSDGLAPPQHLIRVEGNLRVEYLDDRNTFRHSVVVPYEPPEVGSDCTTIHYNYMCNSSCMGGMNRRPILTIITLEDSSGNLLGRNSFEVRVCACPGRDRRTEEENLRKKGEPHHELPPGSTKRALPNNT

With “TTTTTTTTTTTTTTTTTTTTTTTTTTTTTTTTTTTTTTTTTTTTTTTTTT / AAAAAAAAAAAAAAAAAAAAAAAAAAAAAAAAAAAAAAAAAAAAAAAAAA / TTTTTTTTTTTTTTTTTTTTTTTTTTTTTTTTTTTTTTTTTTTTTTTTTT [T.A.T triplex, biotinylated]” as the sequence, how does the Kd read?
Its Kd is 16.8 nM.

— paper PMC5131957
